From US12564609B2, “Hematopoietic stem cell engraftment with a combination of agents” (The Board of Trustees of the Leland Stanford Junior …, priority 2020, dated 2026)

B1: SCF: recombinant murine stem cell factor (PeproTech), ligand of CD117 (protein, UniProt P20826 26-190, looked up)
Soluble KIT ligand: KEICGNPVTDNVKDITKLVANLPNDYMITLNYVAGMDVLPSHCWLRDMVIQLSLSLTTLLDKFSNISEGLSNYSIIDKLGKIVDDLVLCMEENAPKNIKESPKRPETRSFTPEEFFSIFNRSIDAFKDFMVASDTSDCVLSSTLGPEKDSRVSVTKPFMLPPVAA
B2: JSP191: anti-human CD117 mAb, humanized form of SR1, aglycosylated IgG1 (antibody, chains of the INN, looked up, V domains shown)
VH: QVQLVQSGAEVKKPGASVKVSCKASGYTFTSYNMHWVRQAPGQGLEWMGVIYSGNGDTSYNQKFKGRVTITADKSTSTAYMELSSLRSEDTAVYYCARERDTRFGNWGQGTLVTVSS
VL: DIVMTQSPDSLAVSLGERATINCRASESVDIYGNSFMHWYQQKPGQPPKLLIYLASNLESGVPDRFSGSGSGTDFTLTISSLQAEDVAVYYCQQNNEDPYTFGGGTKVEIK

Legend:
[1] = system: hematopoietic stem and progenitor cells; experiment: In vivo HSC depletion by anti-CD117 mAb in combination with AZA; design: species or system C57BL/6 mice; conditions: 1 μg exogenous murine SCF for 5 days in mice treated with ACK2 and AZA, day 11
Protocol: A. Schematic of treatment protocol. C57BL/6 mice were injected retroorbital with single dose of ACK2 500 μg 5 days prior start treatment with AZA. AZA was administered in dose 5 mg/kg/d daily for 5 days. Mice were sacrificed 6, 10, 17 and 20 days after first dose of AZA and bone marrow (BM) and spleens were harvested and analyzed for HSC-depletion and depletion of mature myeloid and lymphoid cells. […] Magnification 100 μm. C. Absolute numbers of the different HSPC compartments in the BM and spleen of untreated controls and mice treated with ACK2 in combination with AZA at 6, 10, 17 20 days after start AZA as measured by flow cytometry; Lin^−Sca1^+c-Kit^+(LSK)CD150+CD48^− (LT-HSC), LSKCD150^−CD48^− (ST-HSC), LSKCD150^+CD48^+ (MPP2), LSKCD150^−CD48^+ (MPP3/4). Data represent mean±SD (n=3-4 per group per timepoint). Statistics were calculated Mann-Whitney test (*P<0.05). […] ACK2 and 2B8 were administered as a single dose of 500 μg retroorbital 5 days prior treatment with AZA; AZA was given at dose 5 mg/kg/d for 5 days. BM was analyzed at d6, d10 and d20 after the start of AZA. […] Statistics were calculated by Kruskal-Wallis test (*P<0.05, ***P<0.001). […] Mice were sacrificed at day 11 after first dose of AZA and BM and spleen were analyzed for HSC-depletion. […] Statistics were calculated by Mann-Whitney test (*P<0.05, ns=non-significant). […]

HSC = conditions: non-human primates; cited from earlier work
human MDS HSC = conditions: MDS-xenografted mice; cited from earlier work
CD117 = target: T1, CD117 (Homo sapiens, UniProt P10721); conditions: children with SCID, single agent conditioning prior to allogeneic HCT; cited from earlier work
T1 construct: JSP191, used as single agent conditioning prior to allogeneic HCT in children with SCID; endogenous in cells; host or cells: hematopoietic stem and progenitor cells of human SCID patients (in vivo, clinical trial)
T1 sequence (P10721 26-976): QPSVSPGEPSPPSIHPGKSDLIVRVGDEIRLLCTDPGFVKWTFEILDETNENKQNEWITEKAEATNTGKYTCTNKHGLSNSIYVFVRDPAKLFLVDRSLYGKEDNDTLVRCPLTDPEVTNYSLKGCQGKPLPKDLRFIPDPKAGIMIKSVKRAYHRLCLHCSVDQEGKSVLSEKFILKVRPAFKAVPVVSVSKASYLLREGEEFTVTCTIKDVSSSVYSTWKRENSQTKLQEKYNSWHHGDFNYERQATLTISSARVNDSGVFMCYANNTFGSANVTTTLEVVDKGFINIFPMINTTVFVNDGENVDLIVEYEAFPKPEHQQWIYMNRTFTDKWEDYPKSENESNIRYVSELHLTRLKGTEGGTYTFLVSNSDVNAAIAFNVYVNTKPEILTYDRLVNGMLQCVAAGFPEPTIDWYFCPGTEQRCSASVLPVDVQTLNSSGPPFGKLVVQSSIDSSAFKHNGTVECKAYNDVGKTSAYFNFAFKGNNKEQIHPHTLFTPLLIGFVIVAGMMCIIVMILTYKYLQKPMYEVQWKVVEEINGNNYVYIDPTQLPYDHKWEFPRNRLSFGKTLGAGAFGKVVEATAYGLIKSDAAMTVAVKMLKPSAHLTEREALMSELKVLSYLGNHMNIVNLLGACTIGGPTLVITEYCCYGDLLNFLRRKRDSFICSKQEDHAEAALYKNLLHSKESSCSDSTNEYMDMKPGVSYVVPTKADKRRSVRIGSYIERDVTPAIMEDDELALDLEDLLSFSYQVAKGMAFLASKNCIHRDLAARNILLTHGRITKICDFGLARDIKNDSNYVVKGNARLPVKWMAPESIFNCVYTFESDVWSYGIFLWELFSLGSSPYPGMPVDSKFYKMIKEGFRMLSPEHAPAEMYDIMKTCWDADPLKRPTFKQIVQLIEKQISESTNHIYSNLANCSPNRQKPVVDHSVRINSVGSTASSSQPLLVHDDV

| Molecule | ST-HSC, MPP2 and MPP3/4 in the bone marrow [1] | recovery of LT-HSC in the bone marrow [1] | HSC elimination and off-target toxicity (HSC) | depletion of human MDS HSC (human MDS HSC) | long-term HSC engraftment (CD117) | tolerability (CD117) |
| --- | --- | --- | --- | --- | --- | --- |
| B1 | no changes | faster recovery of LT-HSC |  |  |  |  |
| B2 |  |  | can eliminate HSC with little to no off-target toxicity | depletes human MDS HSC | all showed evidence of long-term HSC engraftment | tolerated JSP191 well, without safety issues |
